As usually defined, the Kd is the free concentration of one partner at which half of the binding sites on the other are occupied at equilibrium, for simple one-to-one binding.

Experiment [1] has as its target NHP IgG (rhesus macaque serum IgG) (rhesus macaque (Macaca mulatta)). Description: SPR; BIAcore X100; Protein A immobilised on a CM5 chip ([…]. Background: In SPR one partner is held on a chip, and binding of the other changes the refractive index at the surface.
The target in experiment [2] is human IgG (human). Description: SPR; BIAcore X100; Protein A immobilised on a CM5 chip (target 5000 RU); human or NHP IgG at 20 µg/ml captured on the test flow cell to 500 RU; various concentrations of recombinant human CD64 flowed at 10 µl/min; control flow cell with Protein A only; regeneration with 10 mM glycine pH 2.0.

In the case of “recombinant human CD64 receptor (from UniProt P12314 16-374)”, the Kd in experiment [1] came to 162 nM; in experiment [2], 21.9 nM.

Values taken from publication PMC10594996.
